Data from article PMC4832424.

Assays:
GST-TOG1/2 = assay: pull-down
[1] = target: TUBB3-D417H (recombinant α/β-tubulin heterodimer with human TUBB3 D417H) (Homo sapiens) (UniProt P68363); assay: TIRF microscopy single-filament polymerization assay
[2] = target: wild-type TUBB3 (recombinant α/β-tubulin heterodimer with human β-tubulin isotype III) (Homo sapiens) (UniProt P68363); assay: as above

TUBB3-D417H (recombinant α/β-tubulin heterodimer with human TUBB3 D417H) (from UniProt P68363-1 1-437; Q13509-1 1-426) (complex)
Kd (GST-TOG1/2): 1200 nM | apparent association rate constant k+ of tubulin subunits at minus-ends [1]: 1.4e+06 M⁻¹ s⁻¹ | apparent dissociation rate constant k- of tubulin subunits at minus-ends [1]: 1.2 s⁻¹

wild-type TUBB3 (recombinant α/β-tubulin heterodimer with human β-tubulin isotype III) (from UniProt P68363-1 1-437; Q13509-1 1-426) (complex)
Kd (GST-TOG1/2): 400 nM | apparent association rate constant k+ of tubulin subunits at plus-ends [2]: 1.7e+06 M⁻¹ s⁻¹ | apparent dissociation rate constant k- of tubulin subunits at plus-ends [2]: 1.1 s⁻¹
